For orientation: EC50 (read off the curve) means the concentration needed to bring the measured effect to its halfway point.

These results are taken from patent publication US20220251236A1 (Boehringer Ingelheim, published 2022).

For one experiment, the target named is T1, Human DLL3-His (human, UniProt Q9NYJ7 27-492).
T1 construct: also called huDLL3-His; hu DLL3
T1 sequence: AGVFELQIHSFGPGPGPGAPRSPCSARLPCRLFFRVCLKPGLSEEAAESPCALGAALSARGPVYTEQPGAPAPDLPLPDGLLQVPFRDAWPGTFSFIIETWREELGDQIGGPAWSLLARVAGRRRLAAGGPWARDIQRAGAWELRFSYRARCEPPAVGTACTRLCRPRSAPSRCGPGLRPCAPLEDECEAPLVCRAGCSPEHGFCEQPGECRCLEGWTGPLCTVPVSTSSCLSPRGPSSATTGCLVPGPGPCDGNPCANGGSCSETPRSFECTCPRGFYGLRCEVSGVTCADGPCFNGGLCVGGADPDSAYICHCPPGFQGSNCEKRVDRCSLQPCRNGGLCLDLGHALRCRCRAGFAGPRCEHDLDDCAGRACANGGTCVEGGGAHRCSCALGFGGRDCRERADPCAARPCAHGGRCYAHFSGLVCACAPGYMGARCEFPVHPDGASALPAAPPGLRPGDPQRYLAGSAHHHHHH
Briefly: sandwich ELISA with ECL readout (MSD): anti-DLL3 antibody coated, recombinant DLL3 protein titrated; the concentration is that of DLL3 protein. How it is done: Binding of antibodies was performed in an ELISA. In brief, anti-DLL3 antibodies were coated at a concentration of […] at 4° C. over night. After washing the plates were blocked with blocking buffer (Gibco, Gibco #043-90309A) for one hour at room temperature, followed by washing and incubation with recombinant DLL3 protein at increasing concentrations. For detection the bound DLL3 protein was incubated with a polyclonal anti-DLL3 antibody (R&D Systems, AB4315) followed by a SULFO-TAG labelled anti-goat antibody (R32AG-1) for one hour. The bound antibody was quantified by using a Read Buffer (MSD) in a Sector imager 6000 (MSD).
(In general: In an ELISA, binding on a coated surface is turned into a signal by an enzyme label.)

Experiment [1] deals with T2, human DLL3 (endogenous, on SCLC cell lines NCI-H82 and SHP77 and in SCLC tissue) (human, UniProt Q9NYJ7 27-618).
T2 construct: whole, on cells; also called SCLC cell lines expressing DLL3
T2 sequence (looked up): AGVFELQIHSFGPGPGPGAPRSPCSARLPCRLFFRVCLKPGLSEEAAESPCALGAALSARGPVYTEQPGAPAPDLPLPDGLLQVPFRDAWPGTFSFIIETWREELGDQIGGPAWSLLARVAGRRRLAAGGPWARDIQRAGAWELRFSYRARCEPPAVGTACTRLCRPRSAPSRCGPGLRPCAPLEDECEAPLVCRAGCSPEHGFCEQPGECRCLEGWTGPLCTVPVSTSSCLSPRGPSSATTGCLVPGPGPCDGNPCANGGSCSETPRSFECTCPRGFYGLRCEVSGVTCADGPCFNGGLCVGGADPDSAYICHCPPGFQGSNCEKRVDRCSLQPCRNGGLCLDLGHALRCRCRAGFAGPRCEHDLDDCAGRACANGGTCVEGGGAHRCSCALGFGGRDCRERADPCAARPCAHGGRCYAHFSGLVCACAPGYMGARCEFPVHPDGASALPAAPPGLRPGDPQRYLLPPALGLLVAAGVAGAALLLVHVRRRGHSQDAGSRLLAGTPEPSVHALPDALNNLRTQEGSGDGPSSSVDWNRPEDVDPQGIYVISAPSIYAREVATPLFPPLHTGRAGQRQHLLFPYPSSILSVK
Briefly: flow cytometry on a DLL3-positive SCLC cell line (not named on the sheet), PE-conjugated anti-mouse secondary antibody. An excerpt:
Cells (T cells or human SCLC cells) were stained with increasing concentrations of anti-DLL3 antibody with increasing concentrations in FACS buffer (PBS/0.5% BSA/0.05% sodium azide).
A general note: Flow cytometry measures light scatter and fluorescence of single cells or particles in a stream.

The next experiment deals with T3, EGF3+4.
T3 construct: also called Hu DLL3 EGF3+4 on HEK293 cells
T3 membrane-anchored DLL3 subdomain construct: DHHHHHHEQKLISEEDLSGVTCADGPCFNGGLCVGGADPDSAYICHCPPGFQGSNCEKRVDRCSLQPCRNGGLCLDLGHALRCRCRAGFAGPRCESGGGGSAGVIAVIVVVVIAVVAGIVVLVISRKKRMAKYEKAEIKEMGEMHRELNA
The experiment in a line: flow cytometry on HEK293 cells expressing the DLL3 subdomain construct, PE anti-human secondary, control: secondary antibody only. How it is done: (§1) DLL3/CD3 binding proteins were produced by transient transfection of CHO-E cells with the pTT5 vectors carrying the chain-encoding genes, as described in Example 2. […] Bound molecules were detected with PE-conjugated anti-human secondary antibody (Sigma-Aldrich, #P8047). As negative control, cells were incubated with secondary antibody only.
(§2) The samples were measured by flow-cytometry. […] The sequences of the epitope domains are listed in Example 5, Table 3.

Another experiment concerns the target T4, EGF1+2.
T4 construct: also called Hu DLL3 EGF1+2 on HEK293 cells
T4 membrane-anchored DLL3 subdomain construct: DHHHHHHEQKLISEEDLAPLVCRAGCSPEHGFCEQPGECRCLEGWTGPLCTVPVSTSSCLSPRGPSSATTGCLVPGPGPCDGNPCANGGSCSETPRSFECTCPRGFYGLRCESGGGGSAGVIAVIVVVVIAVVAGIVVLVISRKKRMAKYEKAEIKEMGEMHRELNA
The experiment is described as above. How it is done:
as §1, §2

Experiment [2] has as its target T5, EGF6+MEMBRANE PROXIMAL PEPTIDE.
T5 construct: also called Hu DLL3 EGF6+membrane proximal peptide on HEK293 cells
T5 membrane-anchored DLL3 subdomain construct: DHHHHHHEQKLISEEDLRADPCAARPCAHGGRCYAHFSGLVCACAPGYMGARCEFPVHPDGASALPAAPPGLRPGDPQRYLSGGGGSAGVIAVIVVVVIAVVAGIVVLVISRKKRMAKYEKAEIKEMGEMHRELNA
The experiment is described as above. How it is done: as §1, §2

Another experiment addresses T6, EGF2+3.
T6 construct: also called Hu DLL3 EGF2+3 on HEK293 cells
T6 membrane-anchored DLL3 subdomain construct: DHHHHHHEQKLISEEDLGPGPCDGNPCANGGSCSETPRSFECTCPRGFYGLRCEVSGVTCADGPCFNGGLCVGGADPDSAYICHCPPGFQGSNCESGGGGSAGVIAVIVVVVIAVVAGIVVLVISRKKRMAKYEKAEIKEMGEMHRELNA
The experiment is described as above. How it is done: as §1, §2

The target in a further experiment is T7, EGF4+5.
T7 construct: also called Hu DLL3 EGF4+5 on HEK293 cells
T7 membrane-anchored DLL3 subdomain construct: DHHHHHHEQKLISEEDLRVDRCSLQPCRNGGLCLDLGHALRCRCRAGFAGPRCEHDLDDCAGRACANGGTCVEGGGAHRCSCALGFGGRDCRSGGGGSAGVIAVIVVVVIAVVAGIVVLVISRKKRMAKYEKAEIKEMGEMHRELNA
The experiment is described as above. The procedure: as §1, §2

In the next experiment the target is T8, EGF5+6.
T8 construct: also called Hu DLL3 EGF5+6 on HEK293 cells
T8 membrane-anchored DLL3 subdomain construct: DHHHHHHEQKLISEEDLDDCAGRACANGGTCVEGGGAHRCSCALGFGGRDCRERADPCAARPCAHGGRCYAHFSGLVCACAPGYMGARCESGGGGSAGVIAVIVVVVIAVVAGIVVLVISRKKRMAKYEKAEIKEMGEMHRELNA
Described as above. The procedure: as §1, §2

The target in experiment [3] is T2, human DLL3 (endogenous, on SCLC cell …). The experiment in a line: flow cytometry titration on SHP77 cells, PE anti-human secondary, x-fold over background. An excerpt: (§3) Cells (T cells or human SCLC cells) were stained with increasing concentrations of two-step purified DLL3/CD3 binding proteins with increasing concentrations in FACS buffer (PBS/0.5% BSA/0.05% sodium azide). Bound molecules were detected with PE-conjugated anti-human secondary antibody (Sigma-Aldrich, #P8047).

The target is the same in experiment [4]. Briefly: flow cytometry titration on NCI-H82 cells, PE anti-human secondary, x-fold over background.
Excerpt: as §3

Positions count from the first letter of the chain named.

B1: anti-DLL3 antibody DLL3#4 (antibody, V domains shown)
VH: QVQLQQSGTELVKPGASVKLSCKASVYTFTSYFMYWVKQRPGHGLEWIGEISPTNGNSNLNERFKNKATLTVDKSSSTAYMQLSSLTSEDSAVYYCTRGGDGYLDYWGQGTTLTVSS
VL: DIVLTQSPASLAVSLGQRATISCRASKSVSSFGYSFMHWYQQKPGQPPKLLIYLASNLESGVPARFSGSGSGTDFTLNIHPVEEEDAATYYCQHSRELPWTFGGGTKLEIK
notes: detected with anti-mouse secondary antibody
On to B1, for which the “EC50 (read off the curve)” value with Human DLL3-His is roughly 20 ng/mL; in experiment [1], roughly 100 pM.

B2: anti-DLL3 antibody DLL3#1 (antibody, V domains shown)
VH: QVQLVQSGAEVKKPGASVKVSCKASGNTFTNYYMHWVRQAPGPGLEWMGIIDPSVGSKSYAQKFLGRVTIARDTSTSTVFLDLYSLRSEDTAVYFCARAGKRFGESYFDYWGQGTLVTVSS
VL: EIVLTQSPGTLSLSPGERATLSCRASQSVSSNFLVWYQQKPGQAPRPLIYGASTRASGIPDRFSGSGSGADFTLTISRLEPEDFALYYCQQYGDSPYTFGQGTTLEIK
notes: it was detected with anti-mouse reagents
Take B2: the binding result in [1] is “binds”.

B3: anti-DLL3 antibody DLL3#3 (antibody, V domains shown)
VH: QVQLVQSGAEVKKPGASVKVSCKASGYTFTSYYVHWVRQAPGQGLEWMVIINPGGGTTSYAQKFLGRVTMTRDTSTNTVYMELKSLRSEDTAVYYCARGEAVTGNYFYYGMDVWGQGTTVTVSS
VL: DIQMTQSPSAMSASVGDRVTITCRASQGISNYLVWFQQKPGKAPKRLIYAVSSLYSGVPSRFSGSGSGTEFTLTISSLQPEDFATYYCLQHDSYPYTFGQGTKLEIK
notes: as for B1
With B3, the “EC50 (read off the curve)” value with Human DLL3-His is roughly 10 ng/mL.

B4: anti-DLL3 antibody DLL3#2 (antibody, V domains shown)
VH: B3 VH with V34M, V49G, G54S, T57S, L65Q, N77S, K84S, T103G, F107Y
VL: B3 VL with V34A, A43V, K45E, R46P, V51A, Y55Q, G68V, D92N, Y94S
notes: as for B1
For B4, the binding result in [1] was “binds”.

B5: DLL3#15/CD3#1 (bispecific antibody, human IgG1, kappa, lambda, L234A L235A)
chain 1: not shown
chain 2: EAVVTQEPSLTVSPGGTVTLTCRSSTGAVTTSNYANWVQEKPGQLPRGLIGGTNKRAPWVPARFSGSLLGGKAALTLSGAQPEDEAEYFCALWYSNLWVFGGGTKLTVLGQPKAAPSVTLFPPSSEELQANKATLVCLISDFYPGAVKVAWKADGSPVNTGVETTTPSKQSNNKYAASSYLSLTPEQWKSHRSYSCQVTHEGSTVEKTVAPAECSGGGGSEGKSSGSGSESKSTEGKSSGSGSESKSTGGGGSEVQLVESGGGLVQPGGSLKLSCAASGFTFNTYAMNWVRQAPGKGLEWVARIRSKYNNYATYYADSVKDRFTISRDDSKNTAYLQMNNLKTEDTAVYYCVRHGNFGNSYVSWFAYWGQGTLVTVSAASTKGPSVFPLAPSSKSTSGGTAALGCLVKDYFPEPVTVSWNSGALTSGVHTFPAVLQSSGLYSLSSVVTVPSSSLGTQTYICNVNHKPSNTKVDKRVEPKSCDKTHTCPPCPAPEAAGGPSVFLFPPKPKDTLMISRTPEVTCVVVDVSHEDPEVKFNWYVDGVEVHNAKTKPREEQYNSTYRVVSVLTVLHQDWLNGKEYKCKVSNKALPAPIEKTISKAKGQPREPQVYTLPPSREEMTKNQVSLSCAVKGFYPSDIAVEWESNGQPENNYKTTPPVLDSDGSFFLVSKLTVDKSRWQQGNVFSCSVMHEALHNRFTQKSLSLSPG
notes: Heterodimer of one DLL3 chain and one CD3 chain (scFab-Fc, knob-in-hole); SPR not given
Regarding B5, the binding result (in the experiment with EGF3+4; with EGF1+2; in experiment [2]; with EGF2+3; with EGF4+5; in the experiment with EGF5+6) was “no binding (tested: 1.6 nM)” in each case. Moreover, the “EC50 (read off the curve)” value in experiment [3] was roughly 2000 pM; in [4], roughly 1000 pM.

B6: anti-DLL3 antibody DLL3#5 (antibody, V domains shown)
VH: QVQLVQSGAEVKKPGASVKVSCKASGFTFTGYYIHWVRQAPGQGLEWMGWINPNSGGTNYAQKFQGRVTMTRDSSINTAFMELSRLTSDDTAVYYCAAGWDYWGQGTLVTVSS
VL: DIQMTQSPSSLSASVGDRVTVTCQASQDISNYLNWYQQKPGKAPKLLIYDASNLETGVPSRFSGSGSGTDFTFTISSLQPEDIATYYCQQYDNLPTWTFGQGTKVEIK
notes: detected with anti-mouse reagents
For B6, the “EC50 (read off the curve)” value in the experiment with Human DLL3-His is roughly 10 ng/mL; in experiment [1], roughly 500 pM.

B7: anti-DLL3 antibody DLL3#6 (antibody, V domains shown)
VH: QVQLQESGPGLVKPSETLSLTCTVSGGSISSYFWSWIRQPAGKGLEWIGRIYTSGSTNYNPSLNSRLTMSVDTSKNQFSLKLSSVTAADTAVYYCARRGDWGGFDIWGQGTVVTVSS
VL: DIQLTQSPSFLSTSVGDRVTITCRASQDISNYFAWYQQKPGKAPKLLIYAASTLQSGVPSRFSGGGSGTEFTLTISSLQPEDFATYYCQQLNSYPYTFGQGTKLEIK
notes: as for B1
Consider B7, for which, in experiment [1], the “EC50 (read off the curve)” value is roughly 400 pM.
